One block for each binder: values may come before it.
How the values were obtained:
[1] = target: T1, human bek (bacterially expressed kinase) fibroblast growth factor receptor (human, UniProt P21802 22-821); test: Scatchard analysis of [125I]kFGF saturation binding to bek13 cells
T1 construct: whole, on cells; Three-Ig-domain form, 135 kDa glycoprotein on transfected NIH 3T3 cells; Clone Nbek8 was used with aFGF and bFGF, clone NBek13 with kFGF; also called bek8; NBek8

[2] = target: T2, human flg (fms-like gene) fibroblast growth factor receptor (human, UniProt P11362 22-822); test: Scatchard analysis of [125I]kFGF saturation binding to flg26 cells
T2 construct: whole, on cells; Three-Ig-domain form, 150 kDa glycoprotein on transfected NIH 3T3 cells; also called flg26; NFlg26

[3] = target: T2, human flg (fms-like gene) fibroblast …; test: Scatchard analysis of saturation binding to flg overexpressing cells, kFGF against bFGF
Experimental: (§1) Fibronectin-coated 24 well dishes containing 1×10^5 cells/well were placed on ice, and the wells were rinsed twice with cold binding buffer (DMEM, 1 mg/ml BSA, 5 U/ml heparin, 50 mM Hepes, pH 7.4). […] Nonspecific binding was obtained using the same serial dilutions but in the presence of 100 fold molar excess of non-radioactive aFGF. After incubation, the cells were placed on ice and rinsed twice with ice cold binding buffer minus heparin and then solubilized in 0.3N NaOH 37° C., 15 minutes.
(§2) Equilibrium Binding Analysis of flg and bek Radioloabled with Acidic, Basic and k-fibroblast Growth Factors Acidic and basic FGF were radioiodinated and purified on heparin-Sepharose as described above. The dissociation constants of bek and flg for aFGF and bFGF were established by saturation binding analysis of the overexpressing cell lines with the iodinated ligands. Binding of both aFGF and bFGF to bek and flg was specific and saturable (FIG. 6A, inserts).

[4] = target: T1, human bek (bacterially expressed …); test: Scatchard analysis of saturation binding, additional experiments
Experimental: as §1, §2

[5] = target: T1, human bek (bacterially expressed …); test: saturation binding of [125I]aFGF to bek8 cells with excess unlabelled aFGF or bFGF
Experimental: (§3) The background counts in the presence of a 100 fold molar excess of either ligand was always less than 10% of the total cpm at each point. The scale on the Scatchard analysis is the same in each panel.
as §1
as §2, with “inserts). […] Scatchard, (*Ann. N.Y. Acad.” for “inserts).”

[6] = target: T2, human flg (fms-like gene) fibroblast …; test: saturation binding of [125I]aFGF to flg26 cells with excess unlabelled aFGF or bFGF
Experimental: as §3, §1
as §2, with “inserts). […] Scatchard, (*Ann. N.Y. Acad.” for “inserts).”

[7] = target: T1, human bek (bacterially expressed …); test: Scatchard analysis of [125I]aFGF saturation binding to bek overexpressing NIH 3T3 cells
Experimental: as §3, §1
as §2, with “inserts). […] Scatchard, (*Ann. N.Y. Acad.” for “inserts).”

[8] = target: T2, human flg (fms-like gene) fibroblast …; test: Scatchard analysis of [125I]aFGF saturation binding to flg overexpressing NIH 3T3 cells
Experimental: The scale on the Scatchard analysis is the same in each panel.
as §1, §2

T2 sequence (P11362 22-822): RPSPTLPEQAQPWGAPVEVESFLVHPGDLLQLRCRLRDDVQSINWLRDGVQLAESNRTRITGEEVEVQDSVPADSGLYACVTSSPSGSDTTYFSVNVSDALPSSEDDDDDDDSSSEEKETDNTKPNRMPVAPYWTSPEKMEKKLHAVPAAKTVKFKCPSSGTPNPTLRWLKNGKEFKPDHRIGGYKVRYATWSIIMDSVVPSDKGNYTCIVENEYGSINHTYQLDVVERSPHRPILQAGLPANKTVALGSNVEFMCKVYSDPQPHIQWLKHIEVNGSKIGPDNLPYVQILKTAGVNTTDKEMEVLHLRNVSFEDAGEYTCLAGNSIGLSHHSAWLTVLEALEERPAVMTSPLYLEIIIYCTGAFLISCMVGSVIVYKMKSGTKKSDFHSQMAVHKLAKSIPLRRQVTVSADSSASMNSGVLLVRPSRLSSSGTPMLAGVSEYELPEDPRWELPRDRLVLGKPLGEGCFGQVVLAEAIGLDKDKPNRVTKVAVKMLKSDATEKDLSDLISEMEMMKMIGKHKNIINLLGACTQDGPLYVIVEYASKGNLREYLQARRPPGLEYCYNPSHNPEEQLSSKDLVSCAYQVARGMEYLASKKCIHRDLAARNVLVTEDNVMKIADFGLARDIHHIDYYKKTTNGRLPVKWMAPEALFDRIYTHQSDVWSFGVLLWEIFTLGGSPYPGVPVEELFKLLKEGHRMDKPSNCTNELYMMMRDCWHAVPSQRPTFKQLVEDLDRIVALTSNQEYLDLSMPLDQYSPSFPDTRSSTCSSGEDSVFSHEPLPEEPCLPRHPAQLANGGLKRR
T1 sequence (P21802 22-821): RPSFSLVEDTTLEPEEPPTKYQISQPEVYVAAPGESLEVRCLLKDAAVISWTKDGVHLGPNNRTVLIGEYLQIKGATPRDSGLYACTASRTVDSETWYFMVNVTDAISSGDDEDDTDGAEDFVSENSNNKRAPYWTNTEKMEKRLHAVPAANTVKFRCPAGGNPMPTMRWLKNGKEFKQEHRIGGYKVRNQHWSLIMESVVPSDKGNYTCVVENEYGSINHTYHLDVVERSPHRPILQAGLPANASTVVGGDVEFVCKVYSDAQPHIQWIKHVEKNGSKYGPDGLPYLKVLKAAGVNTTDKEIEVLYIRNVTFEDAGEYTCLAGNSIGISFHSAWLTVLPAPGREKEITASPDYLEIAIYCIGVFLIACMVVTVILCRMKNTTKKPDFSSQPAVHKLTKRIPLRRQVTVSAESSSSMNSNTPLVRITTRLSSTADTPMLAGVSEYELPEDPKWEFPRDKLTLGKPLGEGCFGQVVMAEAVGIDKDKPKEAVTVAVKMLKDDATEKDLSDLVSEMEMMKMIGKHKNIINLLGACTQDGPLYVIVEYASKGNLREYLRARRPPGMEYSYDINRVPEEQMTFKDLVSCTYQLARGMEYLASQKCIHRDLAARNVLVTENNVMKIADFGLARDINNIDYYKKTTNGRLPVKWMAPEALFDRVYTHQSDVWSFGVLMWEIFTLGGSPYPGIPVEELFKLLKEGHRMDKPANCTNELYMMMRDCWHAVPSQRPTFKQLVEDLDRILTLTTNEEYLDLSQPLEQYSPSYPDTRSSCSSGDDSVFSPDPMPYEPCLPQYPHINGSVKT

Kd [1]: 0.08 nM | Kd [2]: 0.32 nM | fold less avidity than bFGF [3]: 4 fold
B1: human recombinant kFGF (ligand, UniProt P08620 31-206, looked up)
chain: APTAPNGTLEAELERRWESLVALSLARLPVAAQPKEAAVQSGAGDYLLGIKRLRRLYCNVGIGFHLQALPDGRIGGAHADTRDSLLELSPVERGVVSIFGVASRFFVAMSSKGKLYGSPFFTDECTFKEILLPNNYNAYESYKYPGMFIALSKNGKTKKGNRVSPTMKVTHFLPRL
modifications: radioiodinated (125I) by Enzymobeads
notes: also called hst/kFGF

Kd [4]: 0.04 to 0.1 nM | background counts with 100 fold molar excess of either ligand, % of total cpm [5]: < 10% | background counts with 100 fold molar excess of either ligand, % of total cpm [6]: < 10% | Kd [7]: 0.047 nM | Kd [8]: 0.024 nM
B2: bovine derived acidic fibroblast growth factor (ligand, UniProt P03968 16-155, looked up)
chain: FNLPLGNYKKPKLLYCSNGGYFLRILPDGTVDGTKDRSDQHIQLQLCAESIGEVYIKSTETGQFLAMDTDGLLYGSQTPNEECLFLERLEENHYNTYISKKHAEKHWFVGLKKNGRSKLGPRTHFGQKAILFLPLPVSSD
modifications: radioiodinated (125I) by Enzymobeads where used as labelled ligand
notes: Purified from a bovine source; also called aFGF; acidic FGF
